Source: paper PMC4385862

Tests used:
[1] = phosphorylation at Y342
β1 integrin = β1 integrin (UniProt P05556); assay: co-immunoprecipitation and Western blot; settings: reference: wild-type GFP-K18; sites S52

Row | Substance | other [1] | binding against the reference (β1 integrin)
1 | ClC-3: Y342F | decreases | 
2 | keratin 18 (K18) (from UniProt P05783) S52A GFP-K18 |  | lost
